The values below come from PMC6765261 (Proceedings of the National Academy of Sciences of the …, 2019).

This data set concerns the molecule itself. The data set is described as follows: cryo-EM structure.

B1: CCT6 subunit of yeast TRiC/CCT (natural protein)
chain: not shown
Take B1: the binding result is reported as “binds”.

B2: CCT2 subunit of yeast TRiC/CCT (natural protein, Saccharomyces cerevisiae, UniProt P39076 1-527, looked up)
chain: MSVQIFGDQVTEERAENARLSAFVGAIAVGDLVKSTLGPKGMDKLLQSASSNTCMVTNDGATILKSIPLDNPAAKVLVNISKVQDDEVGDGTTSVTVLSAELLREAEKLIDQSKIHPQTIIEGYRLASAAALDALTKAAVDNSHDKTMFREDLIHIAKTTLSSKILSQDKDHFAELATNAILRLKGSTNLEHIQIIKILGGKLSDSFLDEGFILAKKFGNNQPKRIENAKILIANTTLDTDKVKIFGTKFKVDSTAKLAQLEKAEREKMKNKIAKISKFGINTFINRQLIYDYPEQLFTDLGINSIEHADFEGVERLALVTGGEVVSTFDEPSKCKLGECDVIEEIMLGEQPFLKFSGCKAGEACTIVLRGATDQTLDEAERSLHDALSVLSQTTKETRTVLGGGCAEMVMSKAVDTEAQNIDGKKSLAVEAFARALRQLPTILADNAGFDSSELVSKLRSSIYNGISTSGLDLNNGTIADMRQLGIVESYKLKRAVVSSASEAAEVLLRVDNIIRARPRTANRQHM
With B2, the binding result is listed as “binds”.
